Legend:
[1] = biological target: Escherichia coli enolase (E. coli) (UniProt P0A6P9); test: crystal structure; enolase and microdomain mixed in a 1:1.5 molar ratio on ice for 20 min; sitting drop, 0.1 M HEPES pH 7.0, 1.6 M ammonium sulfate, 293 K; 1.9 A
[2] = biological target: Escherichia coli enolase (E. coli) (UniProt P0A6P9); test: native MS; enolase mixed with the microdomain in a 1:1.5 molar ratio, room temperature, 20 min; nanoflow ESI, tandem nondissociating QTOF-MS/MS

Chain of Escherichia coli enolase (E. coli) (P0A6P9 whole entry): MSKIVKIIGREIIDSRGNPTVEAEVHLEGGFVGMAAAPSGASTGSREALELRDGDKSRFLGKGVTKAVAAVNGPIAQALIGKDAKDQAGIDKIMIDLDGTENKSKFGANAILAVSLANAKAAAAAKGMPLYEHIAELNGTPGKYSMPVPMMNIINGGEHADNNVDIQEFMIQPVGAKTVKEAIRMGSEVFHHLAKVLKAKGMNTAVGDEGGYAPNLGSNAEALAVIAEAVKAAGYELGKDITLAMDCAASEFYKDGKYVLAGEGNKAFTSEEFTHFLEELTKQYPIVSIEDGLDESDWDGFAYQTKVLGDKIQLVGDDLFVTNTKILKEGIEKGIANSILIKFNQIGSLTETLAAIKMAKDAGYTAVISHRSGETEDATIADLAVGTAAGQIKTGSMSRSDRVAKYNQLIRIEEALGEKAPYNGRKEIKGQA

stoichiometry N (RNase E microdomain per enolase dimer) [1]: 1
Substance: RNase E recognition microdomain (residues 823-850) (peptide)
stoichiometry N (RNase E microdomain per enolase dimer) [2]: 1

— article PMC2935283
